Measurements: publication PMC9482650, “Quantitative fragmentomics allow affinity mapping of interactomes” (Nature Communications, 2022)

What was measured:
Experiment in all cases: holdup assay
Set-up in all cases: key: below the threshold = too weak to quantify, mostly under pKd 3.1 to 4
[1] = biological target: Inadl_2, Q8NI35
[2] = biological target: NHERF4_1, Q86UT5-2
[3] = biological target: TJP1_3, Q07157
[4] = biological target: DLG4_2, P78352
[5] = biological target: DLG1_2, Q12959
[6] = biological target: SCRIB_2, Q14160
Chain of SCRIB_2, Q14160 (Q14160 857-960): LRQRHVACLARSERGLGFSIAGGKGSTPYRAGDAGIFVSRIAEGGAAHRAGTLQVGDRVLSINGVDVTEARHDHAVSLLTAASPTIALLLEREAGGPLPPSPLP

[7] = biological target: PICK1, Q9NRD5
Chain of PICK1, Q9NRD5 (Q9NRD5 17-115): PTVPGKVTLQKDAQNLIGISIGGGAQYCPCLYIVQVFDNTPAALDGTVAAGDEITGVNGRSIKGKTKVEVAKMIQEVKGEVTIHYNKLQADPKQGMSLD

[8] = biological target: ARHGEF12, Q9NZN5-2
Chain of ARHGEF12, Q9NZN5-2 (Q9NZN5 other isoform, or with tags, fused parts or gaps): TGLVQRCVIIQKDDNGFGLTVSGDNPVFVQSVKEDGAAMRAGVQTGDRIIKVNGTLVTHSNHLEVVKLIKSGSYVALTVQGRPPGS

[9] = biological target: AHNAK1, Q09666
Chain of AHNAK1, Q09666 (Q09666 4-100): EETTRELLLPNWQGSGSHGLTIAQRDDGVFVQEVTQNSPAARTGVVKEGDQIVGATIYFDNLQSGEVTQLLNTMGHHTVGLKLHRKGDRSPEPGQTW

[10] = biological target: T1, PARD3B_1, Q8TEW8
T1 sequence (Q8TEW8 196-299, limits assumed, looked up): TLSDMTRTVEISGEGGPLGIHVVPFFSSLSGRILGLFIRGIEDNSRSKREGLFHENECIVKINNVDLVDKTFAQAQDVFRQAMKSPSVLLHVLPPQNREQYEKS

[11] = biological target: T2, MPDZ_5, O75970
T2 sequence (O75970 695-796, limits assumed, looked up): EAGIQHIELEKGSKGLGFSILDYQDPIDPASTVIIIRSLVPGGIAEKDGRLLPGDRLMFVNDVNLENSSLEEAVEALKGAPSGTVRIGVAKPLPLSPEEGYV

[12] = biological target: GOPC, Q9HD26
[13] = biological target: Inadl_3, Q8NI35
Chain of Inadl_3, Q8NI35 (Q8NI35 359-469): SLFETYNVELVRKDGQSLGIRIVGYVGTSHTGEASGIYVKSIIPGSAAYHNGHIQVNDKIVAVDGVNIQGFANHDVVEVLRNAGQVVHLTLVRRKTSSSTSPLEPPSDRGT

[14] = biological target: T3, SNTG2, Q9NY99
T3 sequence (Q9NY99 68-166, limits assumed, looked up): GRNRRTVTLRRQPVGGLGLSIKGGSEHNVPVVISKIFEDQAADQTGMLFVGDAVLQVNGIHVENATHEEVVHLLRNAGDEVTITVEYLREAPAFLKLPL

[15] = biological target: GRID2IP_2, A4D2P6
Chain of GRID2IP_2, A4D2P6 (A4D2P6 272-370): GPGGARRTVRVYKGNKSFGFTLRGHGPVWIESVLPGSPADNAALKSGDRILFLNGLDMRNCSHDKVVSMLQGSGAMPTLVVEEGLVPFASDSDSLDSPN

[16] = biological target: T4, DFNB31_2, Q9P202
T4 sequence (Q9P202 274-371, limits assumed, looked up): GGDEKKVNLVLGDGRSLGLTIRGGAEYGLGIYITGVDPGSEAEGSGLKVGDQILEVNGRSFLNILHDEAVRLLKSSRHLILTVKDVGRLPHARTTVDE

[17] = biological target: GORASP2, Q9H8Y8
[18] = biological target: T5, NHERF3_1, Q5T2W1
T5 sequence (Q5T2W1 4-100, limits assumed, looked up): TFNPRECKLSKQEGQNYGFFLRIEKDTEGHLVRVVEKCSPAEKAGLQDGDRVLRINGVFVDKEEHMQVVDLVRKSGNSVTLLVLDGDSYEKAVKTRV

[19] = biological target: GRIP2_5, Q9C0E4
Chain of GRIP2_5, Q9C0E4 (Q9C0E4 544-642): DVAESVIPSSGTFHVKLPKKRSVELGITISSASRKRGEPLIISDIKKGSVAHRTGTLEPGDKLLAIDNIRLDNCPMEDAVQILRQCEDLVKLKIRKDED

[20] = biological target: GRIP2_3, Q9C0E4
Chain of GRIP2_3, Q9C0E4 (Q9C0E4 238-339): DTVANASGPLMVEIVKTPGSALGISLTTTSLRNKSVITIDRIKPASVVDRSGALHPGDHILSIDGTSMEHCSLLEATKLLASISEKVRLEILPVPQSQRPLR

[21] = biological target: DLG4_3, P78352
Chain of DLG4_3, P78352 (P78352 306-403): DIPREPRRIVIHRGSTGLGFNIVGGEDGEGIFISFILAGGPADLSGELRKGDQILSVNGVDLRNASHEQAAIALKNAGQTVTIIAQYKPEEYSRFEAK

[22] = biological target: DLG5_1, Q8TDM6
Chain of DLG5_1, Q8TDM6 (Q8TDM6 617-713): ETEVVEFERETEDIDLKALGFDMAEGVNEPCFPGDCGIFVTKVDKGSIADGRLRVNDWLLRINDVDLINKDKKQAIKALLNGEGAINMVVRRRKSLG

[23] = biological target: IL16_3, Q14005
Chain of IL16_3, Q14005 (Q14005 1107-1207): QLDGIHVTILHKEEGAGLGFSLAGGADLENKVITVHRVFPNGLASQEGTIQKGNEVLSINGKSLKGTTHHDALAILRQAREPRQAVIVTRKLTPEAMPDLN

[24] = biological target: T6, APBA1_1, Q02410
T6 sequence (Q02410 651-752, limits assumed, looked up): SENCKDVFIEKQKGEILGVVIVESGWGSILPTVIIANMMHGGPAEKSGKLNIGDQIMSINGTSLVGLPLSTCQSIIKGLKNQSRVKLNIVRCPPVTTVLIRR

[25] = biological target: DLG2_3, Q15700
[26] = biological target: T7, SHANK1, Q9Y566
T7 sequence (Q9Y566 658-767, limits assumed, looked up): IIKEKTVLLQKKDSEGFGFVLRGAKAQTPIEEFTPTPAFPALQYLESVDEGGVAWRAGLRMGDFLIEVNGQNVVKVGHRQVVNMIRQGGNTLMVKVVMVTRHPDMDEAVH

[27] = biological target: T8, TIAM2, Q8IVF5
T8 sequence (Q8IVF5 885-986, limits assumed, looked up): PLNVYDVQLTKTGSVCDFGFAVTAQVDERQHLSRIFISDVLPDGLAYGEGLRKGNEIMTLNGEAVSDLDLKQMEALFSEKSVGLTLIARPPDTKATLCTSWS

[28] = biological target: T9, SNTA1, Q13424
T9 sequence (Q13424 82-180, limits assumed, looked up): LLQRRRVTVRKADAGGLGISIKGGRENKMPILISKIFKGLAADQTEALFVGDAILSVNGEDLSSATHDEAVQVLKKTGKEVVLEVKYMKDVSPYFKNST

[29] = biological target: SNX27, Q96L92
[30] = plain residues with an end cap or a label only (N-terminal biotin on a linker: ahx)
[31] = plain residues with an end cap or a label only (N-terminal biotin on a linker: ttds)
[32] = plain residues with an end cap or a label only (N-terminal biotin on a linker: ado-ado)

Chain of TJP1_3, Q07157 (Q07157 416-512): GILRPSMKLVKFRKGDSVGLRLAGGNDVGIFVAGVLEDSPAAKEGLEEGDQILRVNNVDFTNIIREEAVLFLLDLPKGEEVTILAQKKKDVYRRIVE
Chain of DLG4_2, P78352 (P78352 155-259): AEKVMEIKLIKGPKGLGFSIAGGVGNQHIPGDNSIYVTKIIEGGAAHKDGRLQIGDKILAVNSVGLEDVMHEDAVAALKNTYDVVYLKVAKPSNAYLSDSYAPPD
Chain of Inadl_2, Q8NI35 (Q8NI35 238-335): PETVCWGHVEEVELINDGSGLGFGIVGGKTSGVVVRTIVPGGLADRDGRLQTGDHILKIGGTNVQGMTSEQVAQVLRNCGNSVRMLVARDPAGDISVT
Chain of DLG1_2, Q12959 (Q12959 314-412): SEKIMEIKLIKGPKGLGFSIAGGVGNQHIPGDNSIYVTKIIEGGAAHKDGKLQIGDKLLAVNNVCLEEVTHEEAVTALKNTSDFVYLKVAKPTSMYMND
Chain of NHERF4_1, Q86UT5-2 (Q86UT5 other isoform, or with tags, fused parts or gaps): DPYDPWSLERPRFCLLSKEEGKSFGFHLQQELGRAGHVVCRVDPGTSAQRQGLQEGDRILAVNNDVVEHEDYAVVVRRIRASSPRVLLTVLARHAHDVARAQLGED

AKPQPVDSWV [ARVCF, O00192] was tested, and the pKd [1, 30] was “below the threshold”, the pKd [2, 30] was “below the threshold” and the pKd [3, 30] was 3.62. For the same binder, the pKd [4, 30] was 4.81, the pKd [5, 30] was 4.75 and the pKd [6, 30] was 5.16. The pKd [7, 30] was “below the threshold”, the pKd [8, 30] was “below the threshold” and the pKd [9, 30] was “below the threshold”. For the same binder, the pKd [10, 30] was “below the threshold”, the pKd [11, 30] was “below the threshold” and the pKd [12, 30] was “below the threshold”. For the same binder, the pKd [13, 30] was 3.86, the pKd [14, 30] was “below the threshold” and the pKd [15, 30] was “below the threshold”. For the same binder, the pKd [16, 30] was “below the threshold”, the pKd [17, 30] was 4.51 and the pKd [18, 30] was “below the threshold”. The pKd [19, 30] was “below the threshold”, the pKd [20, 30] was “below the threshold” and the pKd [21, 30] was “below the threshold”. For the same binder, the pKd [22, 30] was “below the threshold”, the pKd [23, 30] was “below the threshold” and the pKd [24, 30] was “below the threshold”. For the same binder, the pKd [25, 30] was 4.06, the pKd [26, 30] was “below the threshold” and the pKd [27, 30] was “below the threshold”. The pKd [28, 30] was “below the threshold” and the pKd [29, 30] was 5.15.

With NPDALPETLV [ARHGAP6, O43182] the pKd [1, 31] was 3.93, the pKd [2, 31] was 3.6 and the pKd [3, 31] was “below the threshold”. For the same binder, the pKd [4, 31] was 4.42, the pKd [5, 31] was 4.49 and the pKd [6, 31] was 3.8. For the same binder, the pKd [7, 31] was “below the threshold”, the pKd [8, 31] was 3.85 and the pKd [9, 31] was “below the threshold”. For the same binder, the pKd [10, 31] was “below the threshold”, the pKd [11, 31] was “below the threshold” and the pKd [12, 31] was 4.14. The pKd [13, 31] was 4.36, the pKd [14, 31] was 4.95 and the pKd [15, 31] was 3.8. For the same binder, the pKd [16, 31] was “below the threshold”, the pKd [17, 31] was “below the threshold” and the pKd [18, 31] was 4.55. For the same binder, the pKd [19, 31] was “below the threshold”, the pKd [20, 31] was “below the threshold” and the pKd [21, 31] was 3.46. For the same binder, the pKd [22, 31] was “below the threshold”, the pKd [23, 31] was “below the threshold” and the pKd [24, 31] was “below the threshold”. The pKd [25, 31] was 4.01, the pKd [26, 31] was “below the threshold” and the pKd [27, 31] was “below the threshold”. For the same binder, the pKd [28, 31] was 5.05 and the pKd [29, 31] was 4.7.

In the case of KDECVIATEV [DLL1, O00548], the pKd [1, 30] is reported as “below the threshold”, the pKd [2, 30] is reported as “below the threshold” and the pKd [3, 30] is reported as “below the threshold”. The pKd [4, 30] was 4.39, the pKd [5, 30] was 4.37 and the pKd [6, 30] was 3.82. The pKd [7, 30] was “below the threshold”, the pKd [8, 30] was 4.44 and the pKd [9, 30] was “below the threshold”. For the same binder, the pKd [10, 30] was “below the threshold”, the pKd [11, 30] was “below the threshold” and the pKd [12, 30] was “below the threshold”. The pKd [13, 30] was 3.5, the pKd [14, 30] was “below the threshold” and the pKd [15, 30] was 3.48. For the same binder, the pKd [16, 30] was “below the threshold”, the pKd [17, 30] was “below the threshold” and the pKd [18, 30] was 3.88. For the same binder, the pKd [19, 30] was “below the threshold”, the pKd [20, 30] was “below the threshold” and the pKd [21, 30] was “below the threshold”. The pKd [22, 30] was “below the threshold”, the pKd [23, 30] was “below the threshold” and the pKd [24, 30] was “below the threshold”. For the same binder, the pKd [25, 30] was 4.13, the pKd [26, 30] was 3.76 and the pKd [27, 30] was “below the threshold”. The pKd [28, 30] was “below the threshold” and the pKd [29, 30] was 4.36.

In the case of PDSYHRRDFW [U2AF2, P26368], the pKd [1, 32] is reported as “below the threshold”, the pKd [2, 32] is reported as “below the threshold” and the pKd [3, 32] is reported as “below the threshold”. For the same binder, the pKd [4, 32] was “below the threshold”, the pKd [5, 32] was “below the threshold” and the pKd [6, 32] was “below the threshold”. For the same binder, the pKd [7, 32] was 4.17, the pKd [8, 32] was 3.52 and the pKd [9, 32] was “below the threshold”. For the same binder, the pKd [10, 32] was 4.1, the pKd [11, 32] was “below the threshold” and the pKd [12, 32] was 3.6. The pKd [13, 32] was “below the threshold”, the pKd [14, 32] was 3.72 and the pKd [15, 32] was “below the threshold”. The pKd [16, 32] was “below the threshold”, the pKd [17, 32] was “below the threshold” and the pKd [18, 32] was “below the threshold”. The pKd [19, 32] was “below the threshold”, the pKd [20, 32] was “below the threshold” and the pKd [21, 32] was “below the threshold”. For the same binder, the pKd [22, 32] was “below the threshold”, the pKd [23, 32] was “below the threshold” and the pKd [24, 32] was “below the threshold”. For the same binder, the pKd [25, 32] was “below the threshold”, the pKd [26, 32] was “below the threshold” and the pKd [27, 32] was “below the threshold”. The pKd [28, 32] was “below the threshold” and the pKd [29, 32] was 3.61.
